Like-named read-outs stand apart in the source and are kept apart here.

Experiment [1] has as its target monkey CD33 protein (monkey). In words: ELISA, coated monkey CD33, antibody 0.01 nM.
For experiment [2], the target named is monkey CD33 protein (monkey). In words: ELISA, coated monkey CD33, antibody 100 nM.
Experiment [3] concerns the target monkey CD33 protein (monkey). Description: ELISA, coated monkey CD33, antibody 0.001 nM.
Experiment [4] has as its target murine CD33 protein (murine) (UniProt Q63994). Description: ELISA, coated murine CD33, antibody 0.01 nM.
In experiment [5] the target is monkey CD33 protein (monkey). In words: ELISA, coated monkey CD33, antibody 1 nM.
In experiment [6] the target is monkey CD33 protein (monkey). Description: ELISA, coated monkey CD33, antibody 0.01 nM. The source holds these as a separate data set.
In experiment [7] the target is murine CD33 protein (murine) (UniProt Q63994). In words: ELISA, coated murine CD33, antibody 1 nM.
Experiment [8] addresses monkey CD33 protein (monkey). Description: ELISA, coated monkey CD33, antibody 1 nM. This is another data set of the same source.
The target of experiment [9] is murine CD33 protein (murine) (UniProt Q63994). In words: ELISA, coated murine CD33, antibody 0.0001 nM.
Experiment [10] addresses monkey CD33 protein (monkey). In words: ELISA, coated monkey CD33, antibody 0.0001 nM.
Experiment [11] deals with monkey CD33 on HEK293T-monkey CD33 cells (monkey). In words: FACS on HEK293T-monkey CD33 cells.
The target of experiment [12] is monkey CD33 protein (monkey). Description: ELISA, coated monkey CD33, antibody 10 nM.
Experiment [13] deals with monkey CD33 on HEK293T-monkey CD33 cells (monkey). Description: FACS on HEK293T-monkey CD33 cells. This is another data set of the same source.
The target in experiment [14] is murine CD33 protein (murine) (UniProt Q63994). In words: ELISA, coated murine CD33, antibody 100 nM.
The target of experiment [15] is monkey CD33 protein (monkey). Description: ELISA, coated monkey CD33, antibody 0.1 nM.
Experiment [16] addresses monkey CD33 protein (monkey). Description: ELISA, coated monkey CD33, antibody 100 nM. This is another data set of the same source.
Experiment [17] deals with monkey CD33 protein (monkey). In words: ELISA, coated monkey CD33, antibody 10 nM. The source holds these as a separate data set.
Experiment [18] has as its target monkey CD33 protein (monkey). In words: ELISA, coated monkey CD33, antibody 0.0001 nM. This is another data set of the same source.
Experiment [19] concerns the target murine CD33 protein (murine) (UniProt Q63994). In words: ELISA, coated murine CD33, antibody 0.001 nM.
Experiment [20] concerns the target monkey CD33 protein (monkey). In words: ELISA, coated monkey CD33, antibody 0.001 nM. This is another data set of the same source.
Experiment [21] deals with murine CD33 protein (murine) (UniProt Q63994). Description: ELISA, coated murine CD33, antibody 0.1 nM.
The target is the same in experiment [22]. Description: ELISA, coated murine CD33, antibody 10 nM.

murine CD33 protein (murine), sequence (Q63994 18-240 limits assumed): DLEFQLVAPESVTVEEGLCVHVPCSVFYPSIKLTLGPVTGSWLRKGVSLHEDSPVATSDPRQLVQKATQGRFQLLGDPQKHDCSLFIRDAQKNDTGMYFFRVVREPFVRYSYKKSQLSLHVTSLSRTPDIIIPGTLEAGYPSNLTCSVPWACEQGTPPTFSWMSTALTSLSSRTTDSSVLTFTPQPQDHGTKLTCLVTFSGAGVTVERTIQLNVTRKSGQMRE

As for anti-hel-hIgG1 antibody, the OD450 was found to be 0.05 OD450 in experiment [1]; 0.08 OD450 in experiment [2]; 0.04 OD450 in [3]; 0.06 OD450 in experiment [4]; 0.04 OD450 in experiment [5]; 0.04 OD450 in experiment [6]. In addition, the OD450 in experiment [7] was found to be 0.06 OD450; in [8] it was 0.05 OD450; in experiment [9] it was 0.06 OD450; in experiment [10], 0.06 OD450; in [12] it was 0.05 OD450; in experiment [14], 0.08 OD450. Moreover, the OD450 was 0.05 OD450 in [15]; 0.06 OD450 in [16]; 0.06 OD450 in experiment [17]; 0.05 OD450 in experiment [18]; 0.06 OD450 in experiment [19]; 0.07 OD450 in [20]. The OD450 was found to be 0.06 OD450 in experiment [21] and 0.07 OD450 in [22]. Also, the Max MFI in [11] is 107 MFI; in experiment [13] it was 322 MFI.

The values are drawn from patent publication US20240124575A1.
